According to US20250376529A1 (Amgen, published 2025):
Numbering of substitutions follows the chain as printed.

T1: human GIPR transiently expressed on 293T cells (human, UniProt P48546 22-466)
T1 sequence: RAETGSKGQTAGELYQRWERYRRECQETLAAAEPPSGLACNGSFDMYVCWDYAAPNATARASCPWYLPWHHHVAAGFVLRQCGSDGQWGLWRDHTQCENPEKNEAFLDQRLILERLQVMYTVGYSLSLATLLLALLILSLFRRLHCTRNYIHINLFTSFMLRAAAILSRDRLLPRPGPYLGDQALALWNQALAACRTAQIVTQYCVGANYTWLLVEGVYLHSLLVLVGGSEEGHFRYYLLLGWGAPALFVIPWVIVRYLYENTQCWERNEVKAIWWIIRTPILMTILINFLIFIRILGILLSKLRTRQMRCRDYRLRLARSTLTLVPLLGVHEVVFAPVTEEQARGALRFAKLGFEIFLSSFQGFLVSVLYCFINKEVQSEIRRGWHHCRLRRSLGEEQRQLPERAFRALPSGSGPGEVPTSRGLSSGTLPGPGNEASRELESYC

T2: Rhesus GIPR (rhesus, UniProt F7E1R9 22-466)
T2 sequence: T1 sequence with K7E, A31T, D51N, M160T, A186V, L226I, F365L, S422G, S438R, E440V

T3: huGIPR ECD (human, UniProt P48546 22-139, limits assumed)
T3 construct: Soluble ECD injected in the MASS-1 assay; also called human GIPR extracellular domain
T3 sequence: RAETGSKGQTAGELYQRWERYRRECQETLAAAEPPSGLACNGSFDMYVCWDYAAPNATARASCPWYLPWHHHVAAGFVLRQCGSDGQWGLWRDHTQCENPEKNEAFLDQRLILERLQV

B1: 2G10_LC1.006 (antibody, human IgG1, kappa, N297G, V domains shown)
VH: not shown
VL: EIVMTQSPATLSVSPGERATLSCRASQSVSSNLAWYQQKPGQAPRLLIYGAATRATGIPARVSGSGSGTEFTLTISSLQSEDFAVYYCQQYNNWPLTFGGGTKVEIKR
notes: also called iPS:361192; iPS:361194
B2: 6A5.004.009 (antibody, human IgG1, kappa, N297G, V domains shown)
VH: QVQLVESGGGVVQPGRSLRLSCAASGFSFSSYGMHWVRQPPGKGLEWVAAIWYDANNKYYADSVKGRFTISRDSSKNTLYLQMNSLRAEDTAVYYCARDRTIFGVVLEYWGQGTLVTVSS
VL: DIQMTQSPSSLSASVGDRVTITCQASQDITNYLNWYQQKPGKAPKLLIYDASNLEPGVPSRFSGSGSGTDFTLTISSLQPEDFATYYCQQYDDLFTFGPGTKVDIKR
notes: also called iPS:361120; iPS:361122
B3: 2F11.006 (antibody, human IgG1, kappa, N297G, V domains shown)
VH: B2 VH with S28T, P40A, A50V, N56S, S63A, R72S, S74N, E108D
VL: B2 VL with T30S, P56T, T72S, F83I, D93I, F95L, P99G, D104E
B4: 2F11.008 (antibody, human IgG1, kappa, N297G, V domains shown)
VH: not shown
VL: B2 VL with T30S, P56T, T72S, L73F, F83I, D93I, F95L, P99G, D104E
B5: 2F11.009 (antibody, human IgG1, kappa, N297G, V domains shown)
VH: B2 VH with S28T, P40A, A50V, N56S, S74N, E108D
VL: B2 VL with T30S, P56T, T72S, D93I, F95L, P99G, D104E
B6: 2F11.007 (antibody, human IgG1, kappa, N297G, V domains shown)
VH: B2 VH with S28T, P40A, A50V, N56S, S63A, R72S, S74N, E108D
VL: B2 VL with T30S, P56T, T72S, L73F, D93I, F95L, P99G, D104E
B7: 2F11.010 (antibody, human IgG1, kappa, N297G, V domains shown)
VH: not shown
VL: B2 VL with T30S, P56T, T72S, D93I, F95L, P99G, D104E
B8: 4H9.004.003 (antibody, human IgG1, kappa, N297G, V domains shown)
VH: not shown
VL: DIQMTQSPSSLSASVGDRVTITCRASQGIRNELGWYQQKPGKAPKLLIYGASSLQSGVPSRFSGSGSGTEFTLTISSLQPEDFVTYYCLQHNSYPFTFGQGTKVDVKR
B9: 2A11.003 (antibody, human IgG1, kappa, N297G, V domains shown)
VH: QVQLVESGGGVVQPGRSLRLSCAASGFSFSSYGMHWVRQAPGKGLEWVAVIWYDGSNKYYEDSVKGRFTISRDNSKNTLFLQVNSLRAEDTAVYYCARGITIFGHGFEYWGQGTLVTVSS
VL: EIVLTQSPGTLSLSPGERATLSCRASQIFTSTYLAWYQQKPGQAPRLLIYGASSRATGIPDRFSGSGSGTDFTLTISRLEPEDFAVYYCQQYGSSPRFGQGTRLEIKR
notes: also called iPS:335965; iPS:335967
B10: 2A11.005 (antibody, human IgG1, kappa, N297G, V domains shown)
VH: B9 VH with G55A
VL: B9 VL
notes: also called iPS:361165; iPS:361167
B11: 2A11.004 (antibody, human IgG1, kappa, N297G, V domains shown)
VH: B9 VH with S63A
VL: B9 VL
notes: also called iPS:361158; iPS:361160

Molecular target: T1, human GIPR transiently expressed on …
Test: cell-based or functional assay

Hu GIPR CAMP Assay (Conc. mAb @ 60% Inhibition in nM) [nM] | Binder
1.04 | B1

Molecular target: T2, Rhesus GIPR
Test: cell-based or functional assay

Rhesus GIPR CAMP Assay (Conc. mAb @ 60% Inhibition in nM) [nM] | Binder
0.52 | B1
23.3 | B2
1.3 | B3
57.4 | B4
36.9 | B5
1.82 | B6
8.24 | B7
0.5 | B8

Molecular target: T3, huGIPR ECD
Test: SPR (MASS-1), captured mAb

binding result | Binder
no binding (tested: 200 nM huGIPR ECD) | B9
no binding (tested: 200 nM huGIPR ECD) | B10
no binding (tested: 200 nM huGIPR ECD) | B11
no binding (tested: 200 nM huGIPR ECD) | B2

Molecular target: T3, huGIPR ECD
Test: SPR (MASS-1), captured mAb, 200 nM huGIPR ECD

koff [s⁻¹] | Binder
0.001 | B1
